Laboratory results taken from paper PMC3408589 (Chemistry & biology, 2012).

Target: the molecule itself
Experiment: cross-linking

B1: untagged human ribonucleotide reductase α expressed in COS-1 cells (monocistronic cassette) (enzyme, UniProt P23921 1-792, looked up)
chain: MHVIKRDGRQERVMFDKITSRIQKLCYGLNMDFVDPAQITMKVIQGLYSGVTTVELDTLAAETAATLTTKHPDYAILAARIAVSNLHKETKKVFSDVMEDLYNYINPHNGKHSPMVAKSTLDIVLANKDRLNSAIIYDRDFSYNYFGFKTLERSYLLKINGKVAERPQHMLMRVSVGIHKEDIDAAIETYNLLSERWFTHASPTLFNAGTNRPQLSSCFLLSMKDDSIEGIYDTLKQCALISKSAGGIGVAVSCIRATGSYIAGTNGNSNGLVPMLRVYNNTARYVDQGGNKRPGAFAIYLEPWHLDIFEFLDLKKNTGKEEQRARDLFFALWIPDLFMKRVETNQDWSLMCPNECPGLDEVWGEEFEKLYASYEKQGRVRKVVKAQQLWYAIIESQTETGTPYMLYKDSCNRKSNQQNLGTIKCSNLCTEIVEYTSKDEVAVCNLASLALNMYVTSEHTYDFKKLAEVTKVVVRNLNKIIDINYYPVPEACLSNKRHRPIGIGVQGLADAFILMRYPFESAEAQLLNKQIFETIYYGALEASCDLAKEQGPYETYEGSPVSKGILQYDMWNVTPTDLWDWKVLKEKIAKYGIRNSLLIAPMPTASTAQILGNNESIEPYTSNIYTRRVLSGEFQIVNPHLLKDLTERGLWHEEMKNQIIACNGSIQSIPEIPDDLKQLYKTVWEISQKTVLKMAAERGAFIDQSQSLNIHIAEPNYGKLTSMHFYGWKQGLKTGMYYLRTRPAANPIQFTLNKEKLKDKEKVSKEEEEKERNTAAMVCSLENRDECLMCGS
- stoichiometry N: 6
